Experimental data taken from publication PMC4762007, “Insight into Coenzyme A cofactor binding and the mechanism of acyl-transfer in an acylating aldehyde dehydrogenase from Clostridium phytofermentans” (Scientific Reports, 2016).

How the values were obtained:
Cphy1178(20–462) [1] = molecular target: T1, Cphy1178(20–462) (Lachnoclostridium phytofermentans, UniProt A9KN57); assay: LC-MS; assay type: biochemical; conditions: 100 µM CoA, 75 µM NAD+, 10 mM propionaldehyde, 100 mM KCl, pH 8.0, room temperature
T1 construct: gene Cphy_1178; E. coli BL21(DE3), pET28a; tag state not clearly stated; tetramer 4 x 47,452 Da; also misprinted as 20-426
T1 sequence (A9KN57 20-462): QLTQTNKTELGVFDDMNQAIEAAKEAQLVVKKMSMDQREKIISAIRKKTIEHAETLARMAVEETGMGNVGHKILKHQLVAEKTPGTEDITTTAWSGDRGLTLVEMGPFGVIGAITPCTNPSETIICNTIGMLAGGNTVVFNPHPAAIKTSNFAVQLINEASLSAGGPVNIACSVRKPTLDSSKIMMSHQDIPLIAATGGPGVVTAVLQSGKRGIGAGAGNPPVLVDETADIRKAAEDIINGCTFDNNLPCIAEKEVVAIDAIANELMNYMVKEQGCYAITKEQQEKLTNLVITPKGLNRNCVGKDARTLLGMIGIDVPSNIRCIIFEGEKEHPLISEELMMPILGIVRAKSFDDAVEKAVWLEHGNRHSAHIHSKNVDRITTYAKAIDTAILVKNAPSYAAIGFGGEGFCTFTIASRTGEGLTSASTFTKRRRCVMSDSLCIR

Cphy1178(20–462) [2] = molecular target: T1, Cphy1178(20–462); assay: NADH formation; assay type: biochemical; conditions: substrate inhibition; 0.66 mM NAD+, 100 mM KCl, 10 mM 2-mercaptoethanol, no CoA, pH 8.0, 21 °C
[3] = molecular target: Cphy1178(20–462), acylating aldehyde dehydrogenase from the Clostridium phytofermentans fucose/rhamnose utilisation BMC, N-terminal truncation (Clostridium phytofermentans); assay: native MS; nano-ESI ion-mobility MS (Synapt G2); protein buffer-exchanged into 100 mM ammonium acetate pH 7.0; tetramer
[4] = molecular target: Cphy1178(20–462), acylating aldehyde dehydrogenase from the Clostridium phytofermentans fucose/rhamnose utilisation BMC, N-terminal truncation (Clostridium phytofermentans); assay: crystal structure; X-ray, space group I 41 2 2, one chain in the asymmetric unit; tetramer generated by crystal symmetry (D2); crystals from 0.1 M sodium acetate pH 4.7, 1.8 M ammonium sulphate, soaked with 10 mM NAD+
[5] = molecular target: Cphy1178(20–462), acylating aldehyde dehydrogenase from the Clostridium phytofermentans fucose/rhamnose utilisation BMC, N-terminal truncation (Clostridium phytofermentans); assay: native MS; solution-phase disassembly: tetramer disrupted by addition of 40% methanol (v/v) prior to MS analysis; tetramer to dimers and monomers
Cphy1178(20–462) [6] = molecular target: T1, Cphy1178(20–462); assay: LC-MS detection of propionyl-CoA; assay type: biochemical; conditions: 100 µM CoA, 75 µM NAD+, 10 mM propionaldehyde, 100 mM KCl, pH 8.0, room temperature
purified protein [7] = substrate: CCCCCC=O; assay: purified protein; conditions: 0.66 mM NAD+, 100 mM KCl, 10 mM 2-mercaptoethanol, no CoA, pH 8.0, 21 °C
purified protein [8] = substrate: CCCC=O; assay: purified protein; assay type: biochemical, Lachnoclostridium phytofermentans; conditions: 0.66 mM NAD+, 100 mM KCl, 10 mM 2-mercaptoethanol, no CoA, pH 8.0, 21 °C
purified protein [9] = substrate: CC=O; assay: purified protein; assay type: biochemical, Lachnoclostridium phytofermentans; conditions: 0.66 mM NAD+, 100 mM KCl, 10 mM 2-mercaptoethanol, no CoA, pH 8.0, 21 °C
purified protein [10] = substrate: CCC=O; assay: purified protein; assay type: biochemical, Lachnoclostridium phytofermentans; conditions: 0.66 mM NAD+, 100 mM KCl, 10 mM 2-mercaptoethanol, no CoA, pH 8.0, 21 °C
purified protein [11] = substrate: CCCCC=O; assay: purified protein; assay type: biochemical, Lachnoclostridium phytofermentans; conditions: 0.66 mM NAD+, 100 mM KCl, 10 mM 2-mercaptoethanol, no CoA, pH 8.0, 21 °C

CCC(=O)SCCNC(=O)CCNC(=O)[C@H](O)C(C)(C)COP(=O)(O)OP(=O)(O)OC[C@H]1O[C@@H](n2cnc3c(N)ncnc32)[C@H](O)[C@@H]1OP(=O)(O)O [propionyl-CoA]
LC-MS (Cphy1178(20–462) [1]): LC-MS analysis confirmed the presence of the propionyl-CoA product

CCC=O [Propionaldehyde]
Ki (Cphy1178(20–462) [2]): 17.31 ± 0.46 mM

Cphy1178(20–462), acylating aldehyde dehydrogenase from the Clostridium phytofermentans fucose/rhamnose utilisation BMC, N-terminal truncation (enzyme)
stoichiometry N [3]: 4
stoichiometry N [4]: 4
stoichiometry N [5]: 2

CC(C)(COP(=O)(O)OP(=O)(O)OC[C@H]1O[C@@H](n2cnc3c(N)ncnc32)[C@H](O)[C@@H]1OP(=O)(O)O)[C@@H](O)C(=O)NCCC(=O)NCCS [CoA]
LC-MS detection of propionyl-CoA (Cphy1178(20–462) [6]): reaction mixtures containing NAD^+ and CoA

CCCCCC=O [Hexanaldehyde]
Ki (Cphy1178(20–462) [2]): 23.52 ± 1.28 mM

CCCCC=O [Pentanaldehyde]
Ki (Cphy1178(20–462) [2]): 12.61 ± 0.46 mM

B1: Cphy1178(20–462) (Lachnoclostridium phytofermentans ISDg) (protein)
chain: T1 sequence (A9KN57 20-462)
notes: E. coli BL21(DE3), pET28a; tag state not clearly stated; tetramer 4 x 47,452 Da; also misprinted as 20-426
Km (purified protein [7]): 2.90 ± 0.10 mM
kcat (purified protein [7]): 5.61 s⁻¹
kcat/Km (purified protein [7]): 1930 M⁻¹ s⁻¹
Km (purified protein [8]): 1.74 ± 0.07 mM
kcat (purified protein [8]): 3.44 ± 0.7 s⁻¹
kcat/Km (purified protein [8]): 1980 M⁻¹ s⁻¹
Km (purified protein [9]): 5.16 ± 0.10 mM
kcat (purified protein [9]): 1.62 ± 0.02 s⁻¹
kcat/Km (purified protein [9]): 310 M⁻¹ s⁻¹
Km (purified protein [10]): 0.82 ± 0.02 mM
kcat (purified protein [10]): 3.45 ± 0.03 s⁻¹
kcat/Km (purified protein [10]): 4210 M⁻¹ s⁻¹
Km (purified protein [11]): 2.2 ± 0.7 mM
kcat (purified protein [11]): 5.44 ± 0.1 s⁻¹
kcat/Km (purified protein [11]): 2470 M⁻¹ s⁻¹
